Test results published in publication PMC4256047, “Structural and Functional Profiling of Environmental Ligands for Estrogen Receptors” (Environmental Health Perspectives, 2014).
Where no end group is shown, it is not given here. fluorescein = fluorescein label on the N-terminus of the peptide

Columns and labels:
Settings in all cases: both partners purified
[1] = molecular target: T1, human wt-ERβ LBD (estrogen receptor beta ligand-binding domain, amino acids 261-502) (human, UniProt Q92731 261-502); test: fluorescence polarisation; fluorescence anisotropy; 4 nM fluorescein-SRC-1 NR2 peptide, LBD diluted 2-fold from 10 uM (ERα) or 20 uM (ERβ); with BBP at 20 uM (ERα) or 40 uM (ERβ); 20 mM Tris pH 8.0, 150 mM NaCl, 5 mM DTT, 10% glycerol
T1 construct: Cloned into pET-32a; N-terminal thioredoxine-hexahistidine tag removed with TEV protease; not shown: thioredoxin, N-terminal, cleaved; His6, N-terminal, cleaved
T1 sequence (Q92731 261-502): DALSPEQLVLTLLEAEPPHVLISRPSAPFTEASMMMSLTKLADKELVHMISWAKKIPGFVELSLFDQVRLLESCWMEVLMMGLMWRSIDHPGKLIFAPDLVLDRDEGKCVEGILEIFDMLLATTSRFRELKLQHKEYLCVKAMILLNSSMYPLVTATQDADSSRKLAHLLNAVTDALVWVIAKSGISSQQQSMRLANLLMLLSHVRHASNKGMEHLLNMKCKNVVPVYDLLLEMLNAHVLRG

[2] = molecular target: T2, human wt-ERα LBD (estrogen receptor alpha ligand-binding domain, amino acids 302-552) (human, UniProt P03372 302-552); test: fluorescence polarisation; fluorescence anisotropy; 4 nM fluorescein-SRC-1 NR2 peptide, LBD diluted 2-fold from 10 uM (ERα) or 20 uM (ERβ); with BPA at 20 uM (ERα) or 40 uM (ERβ); 20 mM Tris pH 8.0, 150 mM NaCl, 5 mM DTT, 10% glycerol
T2 sequence (looked up): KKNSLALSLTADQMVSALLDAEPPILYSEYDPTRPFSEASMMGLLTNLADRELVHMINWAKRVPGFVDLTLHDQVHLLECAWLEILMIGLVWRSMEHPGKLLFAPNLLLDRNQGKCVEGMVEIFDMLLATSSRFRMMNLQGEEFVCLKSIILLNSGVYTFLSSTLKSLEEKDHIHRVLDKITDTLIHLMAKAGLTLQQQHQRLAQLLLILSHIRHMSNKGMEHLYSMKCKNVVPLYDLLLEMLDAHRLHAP

[3] = molecular target: T1, human wt-ERβ LBD (estrogen receptor …); test: as above
[4] = molecular target: T2, human wt-ERα LBD (estrogen receptor …); test: fluorescence polarisation; fluorescence anisotropy; 4 nM fluorescein-SRC-1 NR2 peptide, LBD diluted 2-fold from 10 uM (ERα) or 20 uM (ERβ); with DDE at 20 uM (ERα) or 40 uM (ERβ); 20 mM Tris pH 8.0, 150 mM NaCl, 5 mM DTT, 10% glycerol
[5] = molecular target: T2, human wt-ERα LBD (estrogen receptor …); test: fluorescence polarisation; fluorescence anisotropy; 4 nM fluorescein-SRC-1 NR2 peptide, LBD diluted 2-fold from 10 uM (ERα) or 20 uM (ERβ); in the absence of ligand (apo-receptor); 20 mM Tris pH 8.0, 150 mM NaCl, 5 mM DTT, 10% glycerol
[6] = molecular target: T1, human wt-ERβ LBD (estrogen receptor …); test: as above
[7] = molecular target: T2, human wt-ERα LBD (estrogen receptor …); test: fluorescence polarisation; fluorescence anisotropy; 4 nM fluorescein-SRC-1 NR2 peptide, LBD diluted 2-fold from 10 uM (ERα) or 20 uM (ERβ); with α-ZA at 20 uM (ERα) or 40 uM (ERβ); 20 mM Tris pH 8.0, 150 mM NaCl, 5 mM DTT, 10% glycerol
[8] = molecular target: T1, human wt-ERβ LBD (estrogen receptor …); test: fluorescence polarisation; fluorescence anisotropy; 4 nM fluorescein-SRC-1 NR2 peptide, LBD diluted 2-fold from 10 uM (ERα) or 20 uM (ERβ); with chlordecone at 20 uM (ERα) or 40 uM (ERβ); 20 mM Tris pH 8.0, 150 mM NaCl, 5 mM DTT, 10% glycerol
[9] = molecular target: T1, human wt-ERβ LBD (estrogen receptor …); test: fluorescence polarisation; fluorescence anisotropy; 4 nM fluorescein-SRC-1 NR2 peptide, LBD diluted 2-fold from 10 uM (ERα) or 20 uM (ERβ); with butylparaben at 20 uM (ERα) or 40 uM (ERβ); 20 mM Tris pH 8.0, 150 mM NaCl, 5 mM DTT, 10% glycerol
[10] = molecular target: T2, human wt-ERα LBD (estrogen receptor …); test: fluorescence polarisation; fluorescence anisotropy; 4 nM fluorescein-SRC-1 NR2 peptide, LBD diluted 2-fold from 10 uM (ERα) or 20 uM (ERβ); with OHT (4-hydroxytamoxifen) at 20 uM (ERα) or 40 uM (ERβ); 20 mM Tris pH 8.0, 150 mM NaCl, 5 mM DTT, 10% glycerol
[11] = molecular target: T1, human wt-ERβ LBD (estrogen receptor …); test: as above

Kd [1]: 10.6 µM
Kd [2]: 1.76 µM
Kd [3]: 1.31 µM
Kd [4]: 4.1 µM
Kd [5]: 6.28 µM
Kd [6]: 4.54 µM
Kd [7]: 0.33 µM
Kd [8]: 9.13 µM
Kd [9]: 1.13 µM
Kd [10]: 23.6 µM
Kd [11]: 38.8 µM
B1: fluorescein-RHKILHRLLQEGS peptide corresponding to the NR box 2-binding motif of SRC-1 (peptide)
peptide: fluorescein-RHKILHRLLQEGS
notes: also called SRC-1 NR2 peptide; fluorescein-labeled SRC-1 NR2 peptide; source: bought: EZbiolab
